Measured values: patent US20240424129A1, “RECOMBINANT FUSION ANTIBODY, AND ANTIBODY-DRUG CONJUGATE AND USE THEREOF” (SUN YAT-SEN UNIVERSITY, priority 2021, published 2024)
Non-standard residues stand in square brackets, D forms with d. Residues, ends and D or L forms follow the SMILES beside them. Dolaproine = CO[C@@H]([C@@H]1CCCN1)[C@@H](C)C(=O)O; Dil = CC[C@H](C)[C@H](NC)[C@@H](CC(=O)O)OC; NMeV = CN[C@H](C(=O)O)C(C)C

Columns and labels:
Assay type in all cases: cell-based, human
MDA-MB-231 cells = assay: In-vitro cytotoxicity, HER2-negative negative control; details: MDA-MB-231, FIG. 15
Procedure: (§1) In this example, human breast cancer cell line SKBR3 with high expression of HER2 and human ovarian cancer cell line SKOV3 with high expression of HER2 were chosen to evaluate the ability of the recombinant-fusion-antibody-drug conjugates to inhibit the growth of cancer cells. The recombinant-fusion-antibody-drug conjugates of different concentrations were added to a 96-well plate seeded with SKBR3 or SKOV3 cells. After treatment for 48 h, the viability of cells was calculated using a CCK8 kit.
In addition, in this example, the HER2-negative MDA-MB-231 cells were chosen as a negative control to compare the ability of fused VHH7-MMAF, fused VHH8-MMAF, VHH0-MMAF, VHH0, and MMAF to inhibit the growth of cancer cells.

SKBR3 cells [1] = assay: In-vitro cytotoxicity, CCK8 cell viability; details: SKBR3, 48 h; for IC50: CCK8, mean n=3
Procedure: as §1
Cell viability was measured using different concentrations of MMAF, VHH0-MMAF, or different recombinant-fusion-nanobody-drug conjugates (fused VHH1-MMAF to fused VHH26-MMAF). The half-maximal inhibitory concentration IC50 was calculated (FIGS. 14A-14C, and Table 7). FIGS. 14A, 14B and 14C respectively show the viability of SKBR3 cells treated with the recombinant-fusion-nanobody-drug conjugates, including fused VHH1-MMAF to fused VHH6-MMAF, fused VHH7-MMAF to fused VHH22-MMAF, and fused VHH23-MMAF to fused VHH26-MMAF. […] Data are expressed as the mean (n=3).
(§2) SKBR3 and SKOV3 cells were chosen to evaluate the ability of the recombinant-fusion-full-length-antibody-drug conjugates to inhibit the growth of cancer cells. […] The half-maximal inhibitory concentration IC50 was calculated.

SKOV3 cells = assay: In-vitro cytotoxicity, CCK8 cell viability; details: SKOV3, 48 h, CCK8, mean n=3; Table 9
Procedure: as §1, §2

SKBR3 cells [2] = assay: Internalization of TAMRA-labeled recombinant fusion antibodies by flow cytometry; details: 2 μM, 6 h, acid wash, compared with non-fused VHH0
Procedure: The recombinant fusion antibody was labeled a fluorescent molecule and the internalization activity of the labeled antibody was evaluated by flow cytometry.
The procedure included the following steps: First, 5 mM tris (2-carboxyethyl) phosphine (TCEP; Thermo Fisher Scientific) was added to reduce the sulfhydryl group of VHH0 and fused VHH1-VHH26 respectively for approximately 30 min at room temperature, then TCEP was removed by buffer-exchanging with PBS containing 1 mM ethylenediaminetetraacetic acid (EDTA). Next, 2 eq of Maleimide-PEG3-TAMRA was added to the antibody solution and the resulting solution was incubated at 4° C. for 2 h. Lastly, the excess small molecules were removed by buffer-exchanging to obtain TAMRA-labeled VHH0 and fused VHH1-VHH26.
In this example, SKBR3, a human breast cancer cell line with a high expression level of HER2, was used as a model system. […] SKBR3 cells were incubated with TAMRA-labeled antibodies for 6 h, and subsequently washed with acid to remove bound antibodies on the cell membrane, and the fluorescence intensity was analyzed by flow cytometry.

SKBR3 cells [3] = assay: Colocalization of recombinant fusion antibodies with lysosomes by confocal laser scanning microscopy; details: TAMRA-labeled, 4 h, SKBR3, LysoTracker Green; compared with non-fused VHH0
Source text: Confocal laser scanning microscope (CLSM) was used to analyze the colocalization of the recombinant fusion antibodies with the lysosome. The antibody-drug conjugate would be transported and processed in the endocytotic pathway as follows: once the antibody-drug conjugate binds to the cell-surface tumor antigen, it is internalized into endosomes, which subsequently mature and fuse with lysosomes. In the lysosomes, the acidic environment and specific proteases (e.g., cathepsin B) degrade the ADC, thus leading to the release of the drug. The free drug traverses the lysosomal membrane, reaches the cytosol and binds to its target, such as microtubule or DNA, thus ultimately triggering cell death. Therefore, the efficacy of an antibody-drug conjugate relies on its internalization and lysosomal trafficking.
In this example, SKBR3 cells were treated with TAMRA-labeled antibodies, including VHH0, fused VHH1-VHH26, mAb0, or fused mAb1-mAb3, for 4 h. The nuclei of SKBR cells were stained by Hoechst 33342 and the lysosomes of cells were stained by LysoTracker Green. The lysosome-trafficking activity of VHH0, fused VHH1-VHH26, mAb0, and fused mAb1-mAb3 was evaluated by confocal laser scanning microscopy. All images were presented under identical conditions. For quantitative analysis, the same threshold value was set for all images.

Molecule | cytotoxicity in HER2-negative cells (MDA-MB-231 cells) | maximal killing (SKBR3 cells [1]; CCK8) | IC50 (SKBR3 cells [1]; Table 7) [nM] | IC50 (SKBR3 cells [1]; Table 8) [nM] | IC50 (SKOV3 cells) [nM] | internalization ability of nanobodies (mean cell fluorescence) (SKBR3 cells [2]) | colocalization of nanobodies with lysosomes / lysosomal trafficking (SKBR3 cells [3])
CC[C@H](C)[C@@H]([C@@H](CC(=O)N1CCC[C@H]1[C@H](OC)[C@@H](C)C(=O)N[C@@H](Cc1ccccc1)C(=O)O)OC)N(C)C(=O)[C@@H](NC(=O)[C@@H](NC)C(C)C)C(C)C [MMAF, monomethyl auristatin F, reference compound] (H-[NMeV]V[Dil][Dolaproine]F-OH) | significant cell death | about 50% | 53.2 | 37.4 | 37.4 |  | 
Fused VHH8: anti-HER2 nanobody fused with P7, His6 tag after the peptide, SEQ ID NO: 40 (protein, linker, P7 peptide, His6 tag) VHH: EVQLVESGGGLVQAGGSLRLSCAASGITFSINTMGWYRQAPGKQRELVALISSIGDTYYADSVKGRFTISRDNAKNTVYLQMNCLKPEDTAVYYCKRFRTAAQGTDYWGQGTQVTVSSLPETGGGSDEDLLHIHHHHHH |  |  |  |  |  | no significant difference in the internalization ability between fused VHH7 and fused VHH8 | No significant difference in lysosomal trafficking
Fused VHH8-MMAF (conjugate) VHH: EVQLVESGGGLVQAGGSLRLSCAASGITFSINTMGWYRQAPGKQRELVALISSIGDTYYADSVKGRFTISRDNAKNTVYLQMNCLKPEDTAVYYCKRFRTAAQGTDYWGQGTQVTVSSLPETGGGSDEDLLHIHHHHHH | none of the substances are cytotoxic |  | 0.319 |  |  |  | 
Fused VHH7: anti-HER2 nanobody fused with lysosome-targeting peptide P7, SEQ ID NO: 39 (protein) EVQLVESGGGLVQAGGSLRLSCAASGITFSINTMGWYRQAPGKQRELVALISSIGDTYYADSVKGRFTISRDNAKNTVYLQMNCLKPEDTAVYYCKRFRTAAQGTDYWGQGTQVTVSSHHHHHHLPETGGGSDEDLLHI |  |  |  |  |  | no significant difference in the internalization ability between fused VHH7 and fused VHH8 | No significant difference in lysosomal trafficking
